The source of these data is US9957308B2, “Method for detecting bilirubin using a fluorescent protein” (RIKEN, priority 2013, dated 2018).

As usually defined, the Kd is the constant that tells how readily two partners part at equilibrium. A high value points to weaker binding.

The target of data set [1] is T1, Japanese eel (Anguilla japonica) UnaG, wild type, SEQ ID NO: 1 (Anguilla japonica, UniProt P0DM59).
T1 construct: GST (N, cleaved yes); made in house; host or cells: Escherichia coli BL21 (DE3)
Put plainly: Dissociation constant by bilirubin titration of apo UnaG (fluorescence at 527 nm, curve fitting). Type of data set: binding. The note with it: wild-type apo UnaG 5 nM, titrated with bilirubin to 10 nM. The text has this: The capacity of binding to bilirubin can be evaluated through calculation of dissociation constant (Kd) by curve-fitting of correlation between the amount of bilirubin and the fluorescence intensity of UnaG protein. In one instance, “reduced capacity of binding to bilirubin compared to UnaG” means that the dissociation constant, Kd, is larger than that of UnaG.
The dissociation constant can be calculated by a known method, for example, by the following computation expression: Y=[Kd+Bt+Pt−{(Kd+Bt+Pt}^1/2]/(2×Pt) where Y represents the degree of binding of bilirubin (fluorescence intensity); Kd represents the dissociation constant; Bt represents the concentration of bilirubin; and Pt represents the concentration (5 nM) of apo UnaG protein.
(§1) An apo UnaG protein solution having an apo UnaG protein concentration of 5 nM was titrated with bilirubin to give a final concentration of bilirubin of 10 nM, and the fluorescence spectrum was measured with a fluorescence spectrophotometer.
Apo A12ES80N mutant protein was titrated with bilirubin, and the fluorescence intensity was measured with a spectrophotofluorometer F-2500 (Hitachi High-Technologies Corporation). The results were plotted. Data analysis and fitting with graph plotting software Origin (OriginLab Corporation) were performed to determine the dissociation constant (Kd). […]

For data set [2], the target named is T2, Japanese eel (Anguilla japonica) UnaG variant A12ES80N (A12E, S80N), SEQ ID NO: 29 (Anguilla japonica, UniProt P0DM59, A12E/S80N).
T2 construct: made in house; host or cells: Escherichia coli JM109 (DE3)
In words: Dissociation constant by bilirubin titration of apo A12ES80N mutant (fluorescence, curve fitting). The data set is classed as binding. Here is the method: as §1
A DNA fragment of A12ES80N mutant was ligated into BamHI and EcoRI restriction enzyme sites of pRSETB-FLAG vector, which was Escherichia coli expression vector pcRSETB including a FLAG tag sequence (SEQ ID NO: 26) at the KpnI/BamHI restriction enzyme sites, and was transformed into Escherichia coli strain JM109 (DE3) for subcloning. […]
The bacterial cells were suspended in 5 mL of PBS, and 50 μL of lysozyme (4 mg/mL) was added thereto. […] Subsequently, His-FLAG-UnaG mutant protein was eluted by adding each 500 μL of PBS containing 300 mM imidazole to the carrier, and the elution fraction was detected by a bradford method. […] The concentration of the purified His-FLAG-UnaG mutant protein was determined by the following computation expression based on the absorbance A280. […]
Apo A12ES80N mutant protein was titrated with bilirubin, and the fluorescence intensity was measured with a spectrophotofluorometer F-2500 (Hitachi High-Technologies Corporation). […]

Data set [3] concerns the target T1, Japanese eel (Anguilla japonica) UnaG, wild type, SEQ ID NO: 1. Put plainly: Fluorescence of apo UnaG reconstructed with bilirubin or bilirubin analogs (ligand specificity). Type of data set: biochemical. The note with it: apo UnaG 0.5 μM; ligand 0.125-2.0 μM; room temperature 30 min; excitation 497 nm, fluorescence 527 nm. Here is the method: FIG. 5 is a graph showing specificity of UnaG protein in Example of the present invention to unconjugated bilirubin. Apo UnaG (0.5 μM) was mixed with a ligand: bilirubin (unconjugated) at various concentrations or a bilirubin analog, biliverdin, urobilin, or ditaurobilirubin, at various concentrations, and the fluorescence intensity at each concentration was measured. The vertical axis indicates fluorescence intensity, and the horizontal axis indicates concentration (μM) of each ligand.
Bilirubin or a bilirubin analog, biliverdin (Toronto Research Chemicals), urobilin (MP Biomedicals), or ditaurobilirubin (Frontier Scientific), was diluted with PBS such that the final concentration was 0.125 μM, 0.25 μM, 0.5 μM, 1.0 μM, or 2.0 μM and was mixed with 0.5 μM apo UnaG protein. The mixture was left to stand at room temperature for 30 min. Subsequently, 200 μL of the mixture was added to each well of a 96 well microplate (Greiner Bio-One) and was subjected to measurement of the fluorescence intensity at a wavelength of 527 nm with excitation light having a wavelength of 497 nm using EnSpire multi-mode plate reader (PerkinElmer Co., Ltd.).

The nature of data set [4]: Measurement of fluorescence spectrum, absorption spectrum, quantum yield and fluorescence lifetime. The data set is classed as physicochemical. Here is the method:
In order to analyze the fluorescent properties of UnaG protein, the fluorescence spectrum, absorption spectrum, and quantum yield were measured. The excitation spectrum and the fluorescence spectrum were measured with a spectrophotofluorometer, RF-5300PC (Shimadzu Corporation), at an excitation wavelength of 475 nm and a fluorescence wavelength of 550 nm. The absorption spectrum was measured with a spectrophotometer, U-2900 (Hitachi High-Technologies Corporation). The quantum yield was measured with an absolute quantum yield measurement system, Quantaurus-QY (Hamamatsu Photonics K.K.) at excitation wavelengths of 470 nm and 480 nm. A known fluorescent protein, EGFP, was similarly measured, and the values were compared to those of UnaG protein.
In order to analyze the fluorescent properties of R82EK84E mutant, the fluorescence spectrum, absorption spectrum, and quantum yield were measured. The measurement was performed by the same method as that described in the above-described paragraph 3. The fluorescence lifetime was measured with a small-sized fluorescence lifetime measurement system, Quantaurus-Tau (Hamamatsu Photonics K.K.) and was compared to that of wild-type UnaG protein.
The fluorescence spectrum, absorption spectrum, and quantum yield (excitation wavelength: 470 nm) were measured for analyzing the fluorescent properties of holo A12ES80N mutant protein. The measurement was performed by the same method as that described in paragraph 3, above. The fluorescent properties were compared to those of wild-type UnaG protein.

A short description of data set [5]: Evaluation of aggregability of protein by dynamic light scattering particle diameter. Type of data set: physicochemical. Here is the method: Protein solutions (each 20 μL) of wild-type UnaG protein (10 mg/mL) and R82EK84E mutated UnaG protein (8.5 mg/mL) were each supplied to Microtrac particle size analyzer MT3000II (Nikkiso Co., Ltd.), and the particle diameters were measured by a dynamic light scattering. The aggregability was evaluated by plotting frequency against particle diameter.

[6] abbreviates: Table 3, wild-type vs R82EK84E mutant.
[7] abbreviates: Table 3, wild-type vs R82EK84E mutant, holo form reconstructed with bilirubin.
The mark [8] stands for this setting: Table 4, wild-type vs holo A12ES80N mutant.

Where a chain is given by its changes, count along the chain named.

T1 sequence (P0DM59 whole entry): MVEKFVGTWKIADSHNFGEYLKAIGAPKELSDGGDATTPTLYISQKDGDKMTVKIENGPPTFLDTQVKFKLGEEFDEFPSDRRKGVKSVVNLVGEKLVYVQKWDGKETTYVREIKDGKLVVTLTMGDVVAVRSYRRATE
T2 sequence (P0DM59 whole entry A12E/S80N): as the sequence (P0DM59 whole entry) above, with A12E, S80N counted along it

For `C=CC1=C(C)/C(=C/c2[nH]c(Cc3[nH]c(/C=C4\NC(=O)C(C)=C4C=C)c(C)c3CCC(=O)O)c(CCC(=O)O)c2C)NC1=O` [bilirubin], the results for the Kd in data set [1] and in data set [2] were 98 pM and 1900 pM, respectively. For the same molecule, the “fluorescence emission of UnaG on addition of ligand” value in data set [3] was “the fluorescence of UnaG is specific to bilirubin”.

B1: R82EK84E mutant: UnaG with 82nd amino acid R and 84th amino acid K substituted by E; SEQ ID NO: 5 (protein, listed as Anguilla japonica)
chain: MVEKFVGTWKIADSHNFGEYLKAIGAPKELSDGGDATTPTLYISQKDGDKMTVKIENGPPTFLDTQVKFKLGEEFDEFPSDEREGVKSVVNLVGEKLVYVQKWDGKETTYVREIKDGKLVVTLTMGDVVAVRSYRRATE
With B1, in data set [4] (setting [6]), the Molar extinction coefficient is recorded as 50,870 M^−1 cm^−1 and the Quantum yield turned out to be 61%. In data set [4] (setting [7]), this molecule had a Maximum excitation wavelength of 498 nm and a Maximum fluorescence wavelength of 527 nm. The “Fluorescence lifetime (τ1/ns)” value in data set [4] (Table 3, wild-type vs R82EK84E mutant, Quantaurus-Tau) was determined as 2.2 ns. Also, the “dispersibility / aggregation compared to the wild-type” value in data set [5] is “improved dispersibility”. The “particle diameter distribution (peaks)” value in data set [5] (wild-type 10 mg/mL, R82EK84E mutant 8.5 mg/mL) is “single peak”.

B2: A12ES80N mutant: UnaG variant with substitution of A at 12th position to E and S at 80th position to N; SEQ ID NO: 29 (protein, listed as Anguilla japonica)
chain: B1 chain with A12E, S80N, E82R, E84K
B2: in data set [4] (setting [8]), the Maximum excitation wavelength was determined as 499 nm, the Maximum fluorescence wavelength came to 527 nm and the Molar extinction coefficient is on record as 56,210 M^−1 cm^−1. Also, the Quantum yield in data set [4] (Table 4, excitation wavelength 470 nm) came out at 46.8%.
